The results in this text go back to PMC4877382.

Series [1] has as its system FIS (Escherichia coli). Description: EMSA. The note with it: EMSA: 10 mM Tris-HCl pH 8, 10 mM MgCl2, 100 mM NaCl, 10 mM KCl, 1 mM spermidine, 0.5 mM DTT, 5% glycerol, 0.08 mg/ml BSA, 50 ng poly dI-dC, 25 C, 15 min ….
Series [2] deals with H-NS (Escherichia coli). The experiment in a line: EMSA. The note with it: EMSA: 10 mM Tris-HCl pH 8, 10 mM MgCl2, 100 mM NaCl, 10 mM KCl, 1 mM spermidine, 0.5 mM DTT, 5% glycerol, 0.08 mg/ml BSA, 50 ng poly dI-dC, 25 C, 15 min ….

Regarding cspA promoter 310 bp fragment, the binding signal was 7 nM in series [1] and 520 nM in series [2].
